± gives the half width of the 95% confidence interval.
Assay: folding stability dG unfold from chymotrypsin proteolysis; higher = more stable
Outline: (§1)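 Bayesian fitting of sequencing counts gave K50 for each design. Unfolding free energy followed by setting this against a sequence-predicted unfolded-state K50 and a shared folded-state K50, either per protease or with trypsin and chymotrypsin combined. The designs, under 80 residues and lacking cysteine, were digested in a PA-tagged cDNA display format at 11 threefold-diluted protease concentrations and without protease, and only those with AlphaFold2 dimer inter-PAE above 15 were kept.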

Row | Sequence | folding stability dG unfold [kcal/mol]
1 | SAGGSMTFEIVEVTYDEETDEVTVRVRLPNGEVVTLSAEEIEKAIKEGKTITFTLENGEKLEIEVLSAGGSA [r2_301_TrROS_Hall] | 2.58 ± 0.03
2 | SAGPAVVIPLPLDPEKWSPEEILEAAIKLAEEAYKAGLPGSVTLLVPVPEKPLLITIDPKTGKITVDPSAGG [r19_204_TrMRF] | 1.73 ± 0.066
3 | SAGGSMRITKIEIEPNPNGDYKITITMTENGHITVEVMNPNGKPKEVEVNMPNGDPEEVVKEAIKASAGGSA [r2_298_TrROS] | 2.25 ± 0.1
4 | SAGGIKEAFEAGVEVKDVEVPVLFPDGSEAEVVEVDPVDDGVRVVLRNPVTGELFEREIPPELIEPRPSAGG [r13_340_TrMRF] | 0.172 ± 0.053
5 | SAGGGLIRDAIENNPELRELLKEGYVLYVTYPDGKSGVIEINNASASEIDDAIRAHFPGEVELEFGSSAGGS [r16_655_TrMRF] | 0.389 ± 0.048
6 | SAGGSAGGSAPETSLTSTFEFRFEVDGELYAVRIERRVLLSADGDLRVETRIEIIPIPPDVPASAGGSAGGS [r12_927_TrMRF] | 5.1 ± 0.12
7 | SAGGSAGGSAKTIKVLVRDKETGEVFEVEAEIVEFDEETGELLIKVRLPNGKTLTLSAEELLSAGGSAGGSA [r18_334_TrROS_Hall] | 4.12 ± 0.1
8 | SAGGSAGGSAGGNIEIFYFPDGYVVITIWDPDEGWRIVITAKIDPGDGKIKEMDIMPVPSAGGSAGGSAGGS [r10_613_TrROS] | 2.91 ± 0.13
9 | SAGGSAGGSAGSTITIRINGKTYTIEVDESEEEALERIRELARALLPEGEVEVTVERREPSAGGSAGGSAGG [r11_1028_TrROS_Hall] | 3.374 ± 0.026
10 | SAGGSAGGSAGGLGPDEKPKVKYLALIYDPETGEVTVVPADKLDKVLKETDASVSLFPVSAGGSAGGSAGGS [r10_1121_TrMRF] | 0.401 ± 0.1
11 | SMVTVETRPEEVLPDAEGRLRRVTVVITFPDGKTLTVDMEFPPDVSDEEVEERLRALVEELGVESIELLGSA [r9_1203_JUSTAS] | 1.81 ± 0.086
12 | SAGGSAVPKLPTGVEVEPLAVIDPETASPEEIRALLAEHPGPLLVRPSSTGEWRVVPAEELLALLGSAGGSA [r15_904_JUSTAS] | 1.19 ± 0.076
13 | SAGGSAGGSAGAVFTLPDGMKITIEKNEDGTYTITIETDGKTETIEIKPGETIEIEIFPPSAGGSAGGSAGG [r11_164_TrROS_Hall] | 3.202 ± 0.03
14 | SAGGSKIQISIWEDPENDYTWVTIWFPDDEELVDFFVEDIADLGVKKVETERFPDNGWRRITILIRSAGGSA [r2_358_TrROS] | 3.27 ± 0.066
15 | SAGGSAGGDYVKIEIWIPPGMPDAEELVDKMSNYGFEIKKIERDPKNNYVRVTIVFQIPPGAIKSAGGSAGG [r6_604_TrROS] | 2.43 ± 0.067
16 | SAGGAPLSSSEEVEALLKEGGAEFVSKTSVTITEPGVPVTVNVYTIRVKDPSSDKWTLVEVPSSLLSSAGGS [r16_271_JUSTAS] | 0.429 ± 0.2
17 | SAGPKTITIWFRSPEWIRKLAKELGFEIKKVKRTGDYWSVEFTREGGKNIEIHIPDDALKELGFDLDDISAG [r5_12_TrROS] | 2.28 ± 0.089
18 | SAGGSPEIPKDYEVIEIDAETLPDGSVLIPIIVRDPIIPYYLKMYYRSIPTRWEPISFELIHPDELSAGGSA [r2_371_TrMRF] | 1.61 ± 0.085
19 | SAPPRISIPWDPESGNWRVKVYNPKDPGKKREIDIPMKELQAKHGKPMSPNEIAQWLVKKGIDYVEIYPSAG [r14_809_TrROS] | 0.559 ± 0.21
20 | SAGGSAGGMVEEIIEEFKKKGYNPEVEVRKTSPETTVVTLKLPDKEVIVEVKPLTPEELEEILRSAGGSAGG [r6_786_JUSTAS] | 1.05 ± 0.089
21 | SAGGSAGGSAMETVYIPKEEVEKDPEKLEEIKEKLKKELEEKGKKVEFKEDPNGGYTITVESAGGSAGGSAG [r3_75_JUSTAS] | 0.855 ± 0.029

Assay: folding stability dG unfold from trypsin proteolysis; higher = more stable
Outline: as §1

Row | Sequence | folding stability dG unfold [kcal/mol]
22 | SAGGSSSLLEGLPGVVEVTVTTSLSVRPLSPEAARANPGQADRTVPLPRTTVTVTVEFPVSPAGILSAGGSA [r2_404_JUSTAS] | 0.509 ± 0.1
23 | SAGGSAGGGMMLTLSSQTTQTSYDPSGLSTTLSLTTNPLGGTTVVTTTTVPGTGEVSVTTTPSSSAGGSAGG [r6_977_JUSTAS] | 1.32 ± 0.024
24 | SAGGSAGGKNNETRRDPNNGNTYTRTGGKWEMEPVPPPIEIVPWPIWDPNGQDLELMWRVSINLSAGGSAGG [r6_313_TrROS] | 1.06 ± 0.2
25 | SAGGKEVYKVEIEVRLVKVPPGATVTLEEENGELTLTVTAPPGEEVLVIRIKVEKVKLPKPEKKKKKKSAGG [r13_804_TrROS_Hall] | 2.22 ± 0.27
26 | SAGGSAGGSAGPVRTIEILFPFDPGESLEFEIRIPGNGRKIKVSIEPYPNGWMRIKITVYSAGGSAGGSAGG [r17_131_TrROS] | 4.75 ± 0.21
27 | SAGGSAGGSAGGMEIEFEKAKFEIEEIDPEKGKIKVKFPGLEKEFEIEFDKKGKIVKISGSAGGSAGGSAGG [r7_553_TrMRF] | 0.228 ± 0.057
28 | SAGGSAGGSAGGMIIEKKTVEKLPDGTVKVTVSIITVNDDGKTETIKTETKIIPLSELLGSAGGSAGGSAGG [r7_521_JUSTAS] | 2.31 ± 0.11
29 | SAGDLLKNLPPEIVEVEEVKTLPDGTKYFLVKVKKDGKERVFVIELDKNGKIVKIEEMSKEEAEKLLKKSAG [r5_73_TrROS_Hall] | 1.84 ± 0.088
30 | SAMTPEELAARLAEALRREAEEAGLEIVDVRVEYDEETDTVTVEVVVRNKETGELVTRRVEIRSLEELLSAG [r14_409_TrROS_Hall] | 4.52 ± 0.14
31 | SAGGSAGGPETIPLRFGEEEVLLVLSPEDPDRFLAYFPAEGRVYLYRLLPEGLEFLREVPAEELSAGGSAGG [r6_915_TrMRF] | 2.1 ± 0.066
